Patent US20100323905A1 (published 2010)

T1: recombinant full-length human PABPN1 (nuclear poly(A)-binding protein 1), T7-tagged and His-tagged, produced … (human, UniProt Q86U42 1-306)
T1 construct: also called recombinant PABPN1; T7-tagged PABPN1; not shown: T7 Tag and His Tag from vector pET28a
T1 sequence (looked up): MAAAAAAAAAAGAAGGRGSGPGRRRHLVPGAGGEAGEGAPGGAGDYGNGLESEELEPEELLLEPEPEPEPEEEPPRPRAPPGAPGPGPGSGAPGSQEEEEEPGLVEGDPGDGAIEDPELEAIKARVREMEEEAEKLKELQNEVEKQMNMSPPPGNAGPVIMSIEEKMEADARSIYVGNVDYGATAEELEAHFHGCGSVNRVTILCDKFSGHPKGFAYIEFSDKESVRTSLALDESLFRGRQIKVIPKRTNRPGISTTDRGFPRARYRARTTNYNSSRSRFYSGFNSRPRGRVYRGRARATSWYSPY

T2: native PABPN1 purified from bovine calf thymus (bovine, UniProt Q28165 2-306)
T2 sequence (looked up): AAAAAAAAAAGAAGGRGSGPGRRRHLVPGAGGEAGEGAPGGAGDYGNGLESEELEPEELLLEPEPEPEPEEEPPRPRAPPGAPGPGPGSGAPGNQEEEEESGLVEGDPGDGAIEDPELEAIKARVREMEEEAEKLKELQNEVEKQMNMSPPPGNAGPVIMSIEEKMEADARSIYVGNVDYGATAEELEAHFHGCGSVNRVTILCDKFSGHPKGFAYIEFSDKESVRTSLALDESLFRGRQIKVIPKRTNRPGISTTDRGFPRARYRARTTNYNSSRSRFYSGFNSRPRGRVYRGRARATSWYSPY

T3: PABPN1 point mutant M129A (UniProt Q86U42 1-306, limits assumed)
T3 sequence (looked up): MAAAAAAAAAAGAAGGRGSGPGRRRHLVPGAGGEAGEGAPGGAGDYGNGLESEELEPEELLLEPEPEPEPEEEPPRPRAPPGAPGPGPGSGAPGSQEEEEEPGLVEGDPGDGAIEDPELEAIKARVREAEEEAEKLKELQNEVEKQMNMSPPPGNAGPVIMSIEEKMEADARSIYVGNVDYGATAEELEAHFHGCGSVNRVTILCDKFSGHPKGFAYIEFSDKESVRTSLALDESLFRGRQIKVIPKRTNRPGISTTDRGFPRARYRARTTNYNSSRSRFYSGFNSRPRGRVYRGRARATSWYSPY

T4: PABPN1 point mutant V126S (UniProt Q86U42 1-306, limits assumed)
T4 sequence (looked up): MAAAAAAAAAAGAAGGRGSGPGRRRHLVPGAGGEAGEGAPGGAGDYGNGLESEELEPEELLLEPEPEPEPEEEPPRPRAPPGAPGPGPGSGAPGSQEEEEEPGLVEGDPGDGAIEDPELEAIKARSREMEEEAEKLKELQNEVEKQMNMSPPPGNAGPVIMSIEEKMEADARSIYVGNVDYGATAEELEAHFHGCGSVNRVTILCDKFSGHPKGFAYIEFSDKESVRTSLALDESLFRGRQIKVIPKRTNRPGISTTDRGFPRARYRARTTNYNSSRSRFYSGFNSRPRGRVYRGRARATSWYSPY


How the values were obtained:
beta amyloid Aβ 1-42 = biological target: T5, beta amyloid Aβ 1-42 (UniProt P05067 672-713); assay: ELISA
T5 construct: domain: Aβ 1-42; The numbers 1-42 count on the Aβ peptide, not on the precursor; In immunohistochemistry the target is amyloid deposited in human brain sections; also called amyloid b-42; Amyloid-b-42
T5 sequence (P05067 672-713 limits assumed): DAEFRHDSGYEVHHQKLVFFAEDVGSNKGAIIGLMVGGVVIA

[1] = biological target: T1, recombinant full-length human PABPN1 …; assay: BIAcore affinity measurement (SPR)
[2] = biological target: T2, native PABPN1 purified from bovine calf …; assay: sandwich ELISA: 3F5 coated, native PABPN1 captured
[3] = biological target: T1, recombinant full-length human PABPN1 …; assay: BIAcore affinity measurement (SPR); remark: listed apart in the source
[4] = biological target: T1, recombinant full-length human PABPN1 …; assay: BIAcore affinity measurement (SPR, CM5 chip)
Procedure: Affinities were calculated using Biacore evaluation software.

[5] = biological target: T2, native PABPN1 purified from bovine calf …; assay: affinity measurement (Biacore)
[6] = biological target: T3, PABPN1 point mutant M129A; assay: Western blot of purified mutant proteins
Source text: (§1) Proteins were separated by SDS-PAGE followed by Coomassie Brilliant Blue staining or transfer to PVDF Western blotting membranes (Roche Diagnostics, Almere, The Netherlands) using the Mini-PROTEAN 8 system for gel electrophoresis and the Mini Trans-Blot Cell for blotting of the proteins (Bio-Rad Laboratories, Hercules, Calif., USA). […] For phage detection a 10,000-fold dilution of a HRP-conjugated monoclonal antibody which binds to the phage coat protein was used (Amersham Biosciences, Uppsala, Sweden).

[7] = biological target: T4, PABPN1 point mutant V126S; assay: Western blot of purified mutant proteins
Source text: as §1

Binder	Kd [1] [nM]	Kd [3] [nM]	other results
VHH 11D (VHH, Selected against amyloid b-42) VHH: AVQLVESGGGLVQAGGSLRLSCAASQRTFSSYVMGWFRQAPGKEREFVAAIGWSGGSTAYADSVKGRFTISRDNARNTVYLQMNSLKPEDTAVYYCASAPTRWVPRDSRFYDRWGQGTRVTVSS	–	–	binding result (beta amyloid Aβ 1-42): binds
VHH 3A (VHH, Selected against Aβ 1-42; 15N-labeled in the NMR titration; also called anti-Aβ1-42 VHH 3A) VHH: AVQLVESGGGLVRDGGSLRLSCAASGRTFSSYVMGWFRQAPGKEREFVAAIGWSGGSTAYADSVKGRFTISRDNARNTVYLQMNSLKPEDTAVYYCASAPTRWVPRDSRFYDRWGQGTRVTVSS	–	–	binding result (beta amyloid Aβ 1-42): binds
VHH 3E9 (VHH) VHH: QVQLQESGGGLVQPGGSLRLSCVASGFTFSDNAMSWVRRAPGKGLEWVSAINRAGDSARYADSVKGRFTISRDNAKNTLYLQMNSLKPEDTAVYYCTNGGNYRGQGTQVTVSA	14	–	–
VHH 08 (VHH, Alignment gaps removed) VHH: EVQLVESGGGLVQPGGSLRLSCVASGRTSRISRMAWFRQVPGNERELVATMSSSGITSYAGSVKGRFTISRDNAKNTVDLQMNSLKPEDTAVYYCKYSSRWNIYWGQGTQVTVSS	57	57	–
VHH 3F5 (VHH, also called anti-PABPN1 VHH (3F5)) VHH: EVQLVESGGGLVQAGGSLRLSCAASGRTFSGYGMGWFRQAPGKEREFVAAISWRGGNTYYADSVKGRFTISRDNAKNTVWLQMNSLKPEDTAVYYCSGFVRTRDDPSRIRNYWGQGTQVTVST	–	–	Kd [4]: 5 nM; Kd [5]: 5 nM; binding result [6]: no binding; binding result [7]: no binding
VHH 3A9 (VHH) VHH: QVQLVESGGDLVQAGGSLRLSCAASGHTFDSYGMGWFRQRPGKGREFVAAITMIGGSTHYADSAKGRFTISRDNTKNTISLQMNSLKPEDTAVYYCHAFSRSRFEGYWGQGIQVTVSS	8	–	–

More lines, main results first:

Kd [1] [nM]	Kd [3] [nM]	Binder	other results
11	11	VHH 29 (VHH, also called antibody fragment 29) VHH: QVQLVESGGGLVQAGDSLRLSCAASGRTFSSYVMGWFRQAPGKEREFVAAVTGGGISTYYADSVKGRFTISRDNAKNTVYLQMNSLTPEDTAVYYCYARRLNSWGQGTQVTISS	binding result [2]: binds
7	7	VHH 18 (VHH, Alignment gaps removed) VHH: AVQLVESGGGLVQAGGSLRLSCAASGSIVSLATMGWYRQAPGNQRELVATMSSSGITSYAGSVKGRFTYSRDNAKNTVDLQMNSLKPEDTAVYYCKYSSRWNIYWGQGTLVTVSS	–
